Laboratory results as given in patent US20040192898A1.
Values joined by “and” are separate entries in the source; they are usually repeats but may differ in a detail not shown here. Identical values can stand only once.

Legend:
Amyloid-beta 1-40 = Amyloid-beta 1-40 (UniProt P05067); assay: SPR, BIAcore 2000; antibody captured, Aβ flowed over
Amyloid-beta 1-42 = Amyloid-beta 1-42 (UniProt P05067); assay: as above
[1] = target: β-amyloid peptide (1-42) conjugated to BSA (bovine) (UniProt P05067); assay: competition ELISA as in Example 7, against biotinylated Mu266; N=1
[2] = target: β-amyloid peptide (1-42) conjugated to BSA (bovine) (UniProt P05067); assay: competition ELISA as in Example 7, against biotinylated Mu266; mean, N=3
[3] = target: β-amyloid peptide (1-42) conjugated to BSA (bovine) (UniProt P05067); assay: competition ELISA, BSA-β-amyloid peptide coated, against biotinylated Mu266 (0.6 µg/ml); Exp. I, N56S series
[4] = target: β-amyloid peptide (1-42) conjugated to BSA (bovine) (UniProt P05067); assay: competition ELISA, BSA-β-amyloid peptide coated, against biotinylated Mu266 (0.6 µg/ml); Exp. I, N56T series
[5] = target: β-amyloid peptide (1-42) conjugated to BSA (bovine) (UniProt P05067); assay: competition ELISA, BSA-β-amyloid peptide coated, against biotinylated Mu266 (0.6 µg/ml); Exp. II, N56S series
[6] = target: β-amyloid peptide (1-42) conjugated to BSA (bovine) (UniProt P05067); assay: competition ELISA, BSA-β-amyloid peptide coated, against biotinylated Mu266 (0.6 µg/ml); Exp. II, N56T series
[7] = target: β-amyloid peptide (1-42) conjugated to BSA (bovine) (UniProt P05067); assay: competition ELISA, BSA-β-amyloid peptide coated, against biotinylated Mu266 (0.6 µg/ml); Exp. III, N56S series
[8] = target: β-amyloid peptide (1-42) conjugated to BSA (bovine) (UniProt P05067); assay: competition ELISA, BSA-β-amyloid peptide coated, against biotinylated Mu266 (0.6 µg/ml); Exp. III, N56T series
[9] = target: β-amyloid peptide (1-42) conjugated to BSA (bovine) (UniProt P05067); assay: competition ELISA, Aβ1-42-BSA coated, against biotinylated Mu266 (0.3 µg/ml); mean of three experiments, first set
[10] = target: β-amyloid peptide (1-42) conjugated to BSA (bovine) (UniProt P05067); assay: competition ELISA, Aβ1-42-BSA coated, against biotinylated Mu266 (0.3 µg/ml); mean of three experiments, second set
[11] = target: β-amyloid peptide (1-42) conjugated to BSA (bovine) (UniProt P05067); assay: competition ELISA, BSA-β-amyloid peptide coated, against biotinylated Mu266 (0.6 µg/ml); average of three, N56S series
[12] = target: β-amyloid peptide (1-42) conjugated to BSA (bovine) (UniProt P05067); assay: competition ELISA, BSA-β-amyloid peptide coated, against biotinylated Mu266 (0.6 µg/ml); average of three, N56T series

Kd (Amyloid-beta 1-40): 4 pM
Kd (Amyloid-beta 1-42): 4 pM
IC50 [1]: 3.8 µg/mL and 7.1 µg/mL
IC50 [2]: 7.6 µg/mL and 14 µg/mL
IC50 [3]: 3.8 µg/mL
IC50 [4]: 4.3 µg/mL
IC50 [5]: 4.5 µg/mL
IC50 [6]: 6.4 µg/mL
IC50 [7]: 6.1 µg/mL
IC50 [8]: 6.4 µg/mL
IC50 [9]: 4.7 µg/mL
IC50 [10]: 3.87 µg/mL
IC50 [11]: 4.8 µg/mL
IC50 [12]: 5.7 µg/mL
Substance: Mouse monoclonal antibody 266
